Among the data in patent US20100279930A1 (published 2010) are IC50 values, retold here.

No end group written: not given here.

In one test the target is T1, human Y4 receptor (human, UniProt P50391 1-375). The test is described as follows: 125I-PP displacement.
T1 sequence (P50391 whole entry): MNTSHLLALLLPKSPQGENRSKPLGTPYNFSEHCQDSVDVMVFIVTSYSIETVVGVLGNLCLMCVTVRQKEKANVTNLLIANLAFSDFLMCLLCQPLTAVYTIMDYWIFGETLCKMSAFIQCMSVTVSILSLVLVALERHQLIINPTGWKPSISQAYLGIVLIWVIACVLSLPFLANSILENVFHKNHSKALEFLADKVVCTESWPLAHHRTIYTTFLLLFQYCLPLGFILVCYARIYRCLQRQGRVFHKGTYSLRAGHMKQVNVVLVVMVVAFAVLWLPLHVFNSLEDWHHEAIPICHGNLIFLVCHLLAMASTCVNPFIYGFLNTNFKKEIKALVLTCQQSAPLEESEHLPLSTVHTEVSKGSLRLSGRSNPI
The molecule PLEPVYPGDDATPQQMAQYAAALRRYINMLTRPRY [6666] gave an IC50 of 0.11 nM.
APLEPVYPGDNATPEELVKYFIELRRYINMLTRPRY [6849] yielded an IC50 of 0.15 nM.
On to APLEPVYPGDNATPEELVKYFVGLRRYINMLTRPRY [6850], for which the IC50 turned out to be 0.17 nM.
Turning to APLEPFYPGDDATPQQMAQYAAELRRYINMLTRPRY [6817], the IC50 was 0.2 nM.
The molecule APLEPEYPGDDATPQQMAQYAAELRRYINMLTRPRY [6819] displayed a half-maximal inhibitory concentration (IC50) of 0.14 nM.
Take APLEPVYPGDDATPQQMAQYAAELRRYINLLTRPRY [6812]: the IC50 came to 0.24 nM.
Molecule APLEPVYPGDDATPQQMAQYAAEMRRYINMLTRPRY [6667] registered an IC50 of 0.18 nM.
The molecule APLEPEYPGDDATPQQMARYAAELRRYINMLTRPRY [6827] returned an IC50 of 0.07 nM.
APLEPFYPGDDATPQQMARYAAELRRYINMLTRPRY [6816] yielded an IC50 of 0.15 nM.
Same read-out and setting: the value for APLEPVYPGDNATPEELNRYYASLRKYINMLTRPRY [6673] was 0.16 nM.
On the same count and under the same terms, the result for KPLEPVYPGDNATPEELNRYYASLRRYINMLTRPRY [compound of SEQ ID NO:73 (code 6675)] reads 0.089 nM.
Same read-out and setting: the result for YYYAPLEPVYPGDYATPEQRAQYETQLRRYINTLTRPRY [6806] reads 0.19 nM.
With YYYAPLEPVYPGDNATPEQRAQYAADLRRYINTLTRPRY [6808], the IC50 worked out at 0.15 nM.
On the same count and under the same terms, the result for APLEPVYPGDNATPEQRAQYAADLRRYINTLTRPRY [6807] reads 0.19 nM; that for PAPLEPVYPGDDATPQQMAQYAAELRRYINMLTRPRY [6865], 0.29 nM.
The molecule AAPLEPFYPGDDATPQQMAQYAAELRRYINMLTRPRY [6818] registered an IC50 of 0.15 nM.
On to HAPLEPVYPGDNATPEELNQYYASLRRYINMLTRPRY [6857], for which the IC50 came out at 0.22 nM.
AAPLEPVYPGDNATPEELVKYYSALRRYINMLTRPRY [6863] returned an IC50 of 0.16 nM.
In turn, AAPLEPVYPGDNATPEELNRYYASLRRYINMLTRPRY [6671] had an IC50 of 0.11 nM. The IC50 values of the last two molecules are within 1.5-fold of each other.
In turn, HAPLEPVYPGDNATPEELVKYYSALRRYINMLTRPRY [6860] registered an IC50 of 0.11 nM.
AAPLEPFYPGDDATPQQMAQYAAALRRYINMLTRPRY [6665] had an IC50 of 0.12 nM.
For the molecule APLEPVYPGDNATPEQMAQYAADLRRYINMCTRPRY [6835], the IC50 was determined as 0.26 nM. Against the preceding molecule, the IC50 is about 2.2-fold higher.
APLEPFYPGDNATPEQMARYAAELRRYINMLTRPRY [6828] gave a 50% inhibitory concentration (IC50) of 0.12 nM.
In the case of APLEPVYPGDNATPEQMAQYAADLRRYINMLTRPHRY (ends and bridges not checked) [compound of SEQ ID NO:62 (code 6659)], the IC50 was determined as 0.17 nM.
In turn, CAPLEPVYPGDNATPEQMAQYAADLRRYINMLTRPRY [6836] gave an IC50 of 0.69 nM.
The same measure, in the same setting: the value for AAPLEPFYPGDNATPEQMAQYAAALRRYINLLTRPRY [6811] was 0.2 nM; that for APLEPFYPGDNATPEEIVKYYSALRRYINMLTRPRY [6844] was 0.19 nM.
The same measure, in the same setting: the value for APLEPFYPGDNATPEELVKYYSALRRYINMLTRPRY [6843] was 0.17 nM; that for APLEPVYPGDNATPEELNHYYSALRRYINMLTRPRY [6839] was 0.12 nM; that for APLEPVYPGDNATPEELVKYFSALRRYINMLTRPRY [6848] was 0.12 nM.
On the same count and under the same terms, the result for APLEPFYPGDNATPEELVKYYASLRRYINMLTRPRY [6846] reads 0.15 nM; that for AAPLEPVYPGDNATPEQMAQYAADLRKYINLLTRPRY [6669], 0.32 nM; that for AAPLEPVYPGDNATPEQLAQYAADLRRYINLLTRPRY [6657], 0.25 nM.
Consider AAPLEPVYPGDNATPEQMAQYAADLRRYINTLTRPRY [6658], for which the IC50 worked out at 0.16 nM.
On the same count and under the same terms, the result for AAPLEPVYPGDDATPQQMAQYAAELRKYINMLTRPRY [6814] reads 0.22 nM.

The next test deals with T1, human Y4 receptor. The test is described as follows: 125I-PP displacement. The source holds these as a separate data set.
The molecule PLEPFYPGDDATPQQMAQYAAALRRYINMLTRPRY [4055287] gave an IC50 of 0.5 nM.
Molecule KPLEPVYPGDDATPQQMAQYAAELRRYINMLTRPRY [4055197] yielded an IC50 of 0.62 nM.
For KPLEPVYPGDDATPQQMAQYAAELRRYINMLTRPRY [4055196], the IC50 was determined as 0.33 nM.
Same read-out and setting: the value for APLEPVYPGDDATPQQMAQYYAELRHYLNLVTRPRY [4055248] was 0.38 nM; that for APLEPVYPGDNATPEQMNRYYASLRHYLNLVTRPRY [4054985] was 0.17 nM; that for APLEPVYPGDNATPEQMAQYYASLQHYLNLVTRPRY [4055246] was 0.46 nM.
In the case of PAPLEPKYPGDDATPQQMARYAAELRRYINKLTRPRY [7255], the IC50 is 0.091 nM.
The same measure, in the same setting: the value for PAPLEPEYPGDDATPQQMARYAAELRRYINILTRPRY [7256] was 0.132 nM; that for PAPLEPTYPGDNATPEQMAKYAAELRRYINKLTRPRY [7252] was 0.082 nM.
The same measure, in the same setting: the value for PAPLEPEYPGDNATPEQMARYAAELRRYINKLTRPRY [7254] was 0.109 nM; that for PAPLEPEYPGDDATPQQMARYAAELRRYINFLTRPRY [7257] was 0.142 nM; that for PAPLEPTYPGDDATPQQMARYAAELRRYINKLTRPRY [7258] was 0.068 nM.
The same measure, in the same setting: the result for APLEPVYPGDNATPEQNLAQYAADLRRYINMLTRPRY [4055398] reads 0.15 nM.
With APLEPEYPGDDATPEQMAEYAADLRRYINMLTRPRY [4055407], the IC50 stood at 0.29 nM.
In the case of APLEPVYPGDNATPEQMAQYAADLRRYINMLTRPQY [4054977], the IC50 was 1.8 nM.
Same read-out and setting: the result for APLEPVYPGDNATPEQMAQYAADLRRYIDMLTRPRY [4055403] reads 0.5 nM; that for APLEPVYPGDNATPEQMAQYAADLRRYINMLTRPMY [4054976], 1.4 nM; that for APLEPVYPGDNATPEQMAQYAADLRRYINMLTRPHY [4054987], 0.72 nM.
Molecule APLEPVYPGDNATPEQMAQYAADLMRYINMLTRPRY [4054981] yielded a half-inhibitory concentration (IC50) of 0.38 nM.
Still for that read-out and setting: the result for PAPLEPTYPGDNATPEQMAKYAAALRRYINMLTRPRY [7250] reads 0.099 nM.

Broadly, the IC50 is the concentration needed to halve the response being measured. Low values mean greater potency, high ones weaker potency.
